Conditions in all cases: both partners purified
The target in experiment [1] is T1, avi-β1AR-W (turkey β1-adrenergic receptor β1AR-MetΔ5, thermostabilised with E130W, N-terminal biotinylated … (turkey, UniProt P07700 1-367, Δ3-32 | Δ244-271 | C358A^8.59 | C116L^3.27 | R68S^1.59 | E130W^3.41 | …, biotin on the avi-tag)).
T1 construct: turkey β1-adrenergic receptor; N-terminus truncated (Δ3-32), C-terminus truncated (Δ368-483), IL3 truncated (Δ244-271); source: Sf9 (baculovirus), purified in LMNG (NiNTA, SEC), biotinylated with GST-BirA and repurified by SEC; not shown: avi-tag, N-terminal, kept
The experiment is described as follows: BLI; biotinylated avi-tagged receptor in LMNG immobilised on streptavidin biosensors; 500 μM isoprenaline; mini-G in solution at a single concentration (0.125-4 μM); 20 mM TrisHCl pH 8.0, 150 mM NaCl, 15 mM MgCl2, 0.02% LMNG, 0.1% BSA; 25 °C; 1:1 monophasic local partial fit; one of n = 3 tips. (BLI is a label-free optical method that tracks binding on a fibre tip over time.)

The target in experiment [2] is T2, avi-β1AR-E (turkey β1-adrenergic receptor, minimally thermostabilised construct with E130 restored, … (turkey, UniProt P07700 1-367, Δ3-32 | Δ244-271 | C358A^8.59 | C116L^3.27 | R68S^1.59 | F327A^7.37 | …, biotin on the avi-tag)).
T2 construct: turkey β1-adrenergic receptor; N-terminus truncated (Δ3-32), C-terminus truncated (Δ368-483), IL3 truncated (Δ244-271); as β1AR-W (β1AR-MetΔ5) but with E130W reverted to E130; source: Sf9 (baculovirus), purified in LMNG (NiNTA, SEC), biotinylated with GST-BirA and repurified by SEC; not shown: avi-tag, N-terminal, kept
Described as above.

The target of experiment [3] is T3, avi-β1AR-E (turkey β1-adrenergic receptor, β1AR-E construct with N-terminal biotinylated avi-tag) (turkey, UniProt P07700 1-367, Δ3-32 | Δ244-271 | C358A^8.59 | C116L^3.27 | R68S^1.59 | F327A^7.37 | …, biotin on the avi-tag).
T3 construct: turkey β1-adrenergic receptor; N-terminus truncated (Δ3-32), C-terminus truncated (Δ368-483), IL3 truncated (Δ244-271); as β1AR-W (β1AR-MetΔ5) but with E130 as in the wild type; source: Sf9 (baculovirus), purified in LMNG (NiNTA, SEC), biotinylated with GST-BirA, repurified by SEC; not shown: avi-tag, N-terminal, kept
The experiment is described as follows: BLI; biotinylated avi-β1AR in LMNG on streptavidin biosensors, mini-G in solution; 500 μM isoprenaline; 20 mM TrisHCl pH 8.0, 150 mM NaCl, 15 mM MgCl2, 0.02% LMNG, 0.1% BSA; 25 °C; single point measurements, monophasic 1:1 local fit, n = 3.

Values joined by “and” are separate entries in the source; they are usually repeats but may differ in a detail not shown here. Equal entries are not always repeated.

T2 sequence (P07700 other isoform, or with tags, fused parts or gaps with the stated changes): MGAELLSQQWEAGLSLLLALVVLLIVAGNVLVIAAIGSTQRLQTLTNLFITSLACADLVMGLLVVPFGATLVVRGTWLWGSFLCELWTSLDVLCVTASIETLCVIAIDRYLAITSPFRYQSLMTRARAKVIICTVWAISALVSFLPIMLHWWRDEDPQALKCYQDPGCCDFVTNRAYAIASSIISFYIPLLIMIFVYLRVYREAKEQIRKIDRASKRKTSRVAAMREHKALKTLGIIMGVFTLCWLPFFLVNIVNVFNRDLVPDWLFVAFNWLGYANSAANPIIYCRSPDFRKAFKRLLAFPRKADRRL
T1 sequence (P07700 other isoform, or with tags, fused parts or gaps with the stated changes): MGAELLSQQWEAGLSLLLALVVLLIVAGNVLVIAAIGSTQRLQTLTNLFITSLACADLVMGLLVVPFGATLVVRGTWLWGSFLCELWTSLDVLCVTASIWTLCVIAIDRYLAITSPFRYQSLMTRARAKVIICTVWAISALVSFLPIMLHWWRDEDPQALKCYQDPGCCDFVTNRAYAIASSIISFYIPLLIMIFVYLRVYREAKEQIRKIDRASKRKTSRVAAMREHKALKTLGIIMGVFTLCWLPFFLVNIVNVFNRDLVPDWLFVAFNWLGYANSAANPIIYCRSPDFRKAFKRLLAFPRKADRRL

B1: mini-Gs/q R70 (chimera of mini-Gs with the receptor-interacting residues of the α5 helix replaced by Gq residues) (domain or fragment)
chain: GIEKQLQKDKQVYRATHRLLLLGADNSGKSTIVKQMRILHGGSGGSGGTSGIFETKFQVDKVNFHMFDVGGQRDERRKWIQCFNDVTAIIFVVDSSDYNRLQEALNDFKSIWNNRWLRTISVILFLNKQDLLAEKVLAGKSKIEDYFPEFARYTTPEDATPEPGEDPRVTRAKYFIRDEFLRISTASGDGRHYCYPHFTCAVDTENARRIFNDCKDIILQMNLREYNLV
On to B1, for which, in experiment [1], the Kd was 529 nM and 541 nM and 533 nM; the koff is 0.00658 s⁻¹ and 0.00672 s⁻¹ and 0.00679 s⁻¹; the kon was 12400 M⁻¹ s⁻¹ (2×) and 12800 M⁻¹ s⁻¹. Moreover, in experiment [2], the equilibrium dissociation constant (Kd) was 241 nM and 242 nM and 244 nM; the koff is 0.00344 s⁻¹ (2×) and 0.0034 s⁻¹; the kon was 14300 M⁻¹ s⁻¹ and 14200 M⁻¹ s⁻¹ and 14000 M⁻¹ s⁻¹.

B2: mini-Gs/i R43 with C96A (domain or fragment)
chain: IEKQLQKDKQVYRATHRLLLLGADNSGKSTIVKQMRIYHTSGIFETKFQVDKVNFHMFDVGGQRDERRKWIQAFNDVTAIIFVVDSSDYNRLQEALNDFKSIWNNRWLRTISVILFLNKQDLLAEKVLAGKSKIEDYFPEFARYTTPEDATPEPGEDPRVTRAKYFIRDEFLRISTASGDGRHYCYPHFTCAVDTENARRIFNDVTDIIIKMNLRDCGLF
For B2, in experiment [3], the equilibrium dissociation constant (Kd) came out at 1090 nM and the “fold reduction of kon against mini-Gs” value was 40 fold.

B3: mini-Gs/q R70 (domain or fragment)
chain: IEKQLQKDKQVYRATHRLLLLGADNSGKSTIVKQMRIYHTSGIFETKFQVDKVNFHMFDVGGQRDERRKWIQCFNDVTAIIFVVDSSDYNRLQEALNDFKSIWNNRWLRTISVILFLNKQDLLAEKVLAGKSKIEDYFPEFARYTTPEDATPEPGEDPRVTRAKYFIRDEFLRISTASGDGRHYCYPHFTCAVDTENARRIFNDCKDIILQMNLREYNLV
In the case of B3, in experiment [3], the Kd came out at 240 nM.

B4: mini-Gs/i R43 C96A (chimera of mini-Gs with the receptor-interacting residues of the α5 helix replaced by Gi1 residues) (domain or fragment)
chain: IEKQLQKDKQVYRATHRLLLLGADNSGKSTIVKQMRILHTSGIFETKFQVDKVNFHMFDVGGQRDERRKWIQAFNDVTAIIFVVDSSDYNRLQEALNDFKSIWNNRWLRTISVILFLNKQDLLAEKVLAGKSKIEDYFPEFARYTTPEDATPEPGEDPRVTRAKYFIRDEFLRISTASGDGRHYCYPHFTCAVDTENARRIFNDVTDIIIKMNLRDCGLF
Turning to B4, in experiment [1], the Kd is 3050 nM and 2400 nM and 2150 nM; the koff was 0.0063 s⁻¹ and 0.00605 s⁻¹ and 0.00634 s⁻¹; the kon is 2070 M⁻¹ s⁻¹ and 2520 M⁻¹ s⁻¹ and 2950 M⁻¹ s⁻¹. Besides, in experiment [2], the Kd is 1070 nM and 1180 nM and 1030 nM; the koff was 0.00392 s⁻¹ and 0.00399 s⁻¹ (2×); the kon is 3670 M⁻¹ s⁻¹ and 3370 M⁻¹ s⁻¹ and 3860 M⁻¹ s⁻¹.

The Kd is the concentration at which binding is half-saturated. Usually koff stands for a measure of how fast the partners let go of each other. As usually defined, the kon is a measure of how fast the partners come together.

These data come from publication PMC10864275, “Binding kinetics drive G protein subtype selectivity at the β1-adrenergic receptor” (Nature Communications, 2024).
